{"source": "patent US10544159B2", "about": "“Artemisinin derivatives, methods for their preparation and their use as antimalarial agents” (priority 2012, dated 2020)", "molecules": {"B1": {"name": "IV-H4: FL#62-derived P450 variant (SEQ ID NO. 9), 7(S)-hydroxylating (protein)", "chain": "MTIKEMPQPKTFGELKNLPLLNTDKPVQALMKIADELGEIFKFEAPGRVTRYLSSQRLIKEACDESRFDKNLSQALKFSRDVAGDGLATSWTHEKNWKKAHNILLPSFSQQAMKGYHAMMVDIAVQLVQKWERLNADEHIEVSEDMTRLTLDTIGLCGFNYRFNSFYRDQPHPFIISMVRTLDEVMNKLQRANPDDPVYDENKRQCQEDIKVMNDLVDKIIADRKARGEQSDDLLTQMLNGKDPETGEPLDDGNISYQIITFLIAGHETTSGLLSFALYFLVKNPHVLQKVAEEAARVLVDPVPSYKQVKQLKYVGMVLNEALRLWPTAPAFSLYAKEDTVLGGEYPLEKGDEVMVLIPQLHRDKTIWGDDVEEFRPERFENPSAIPQHAFKPFGNGQRACIGQQFALHEATLVLGMMLKHFDFEDHTNYELDIKETLTLKPEGFVVKAKSKKIPLGGIPSPSTEQSAKKVRKKAENAHNTPLLVLYGSNMGTAEGTARDLADIAMSKGFAPQVATLDSHAGNLPREGAVLIVTASYNGHPPDNAKQFVDWLDQASADEVKGVRYSVFGCGDKNWATTYQKVPAFIDETLAAKGAENIADRGEADASDDFEGTYEEWREHMWSDVAAYFNLDIENSEDNKSTLSLQFVDSAADMPLAKMHGAFSTNVVASKELQQPGSARSTRHLEIELPKEASYQEGDHLGVIPRNYEGIVNRVTARFGLDASQQIRLEAEEEKLAHLPLAKTVSVEELLQYVELQDPVTRTQLRAMAAKTVCPPHKVELEALLEKQAYKEQVLAKRLTMLELLEKYPACEMKFSEFIALLPSIRPRYYSISSSPRVDEKQASITVSVVSGEAWSGYGEYKGIASNYLAELQEGDTITCFISTPQSEFTLPKDPETPLIMVGPGTGVAPFRGFVQARKQLKEQGQSLGEAHLYFGCRSPHEDYLYQEELENAQSEGIITLHTAFSRMPNQPKTYVQHVMEQDGKKLIELLDQGAHFYICGDGSQMAPAVEATLMKSYADVHQVSEADARLWLQQLEEKGRYAKDVWAG"}, "B2": {"name": "FL#62: CYP102A1-derived engineered P450 variant (SEQ ID NO. 8) (protein)", "chain": "B1 chain with S79A, V82S, A83V"}, "B3": {"name": "II-E2: FL#62-derived P450 variant (SEQ ID NO. 13) (protein)", "chain": "B1 chain with S79N, V82F"}, "B4": {"name": "V-H2: FL#62-derived P450 variant (SEQ ID NO. 10) (protein)", "chain": "B1 chain with V82I"}, "B5": {"name": "X-E12: II-E2-derived P450 variant (SEQ ID NO. 14), 6a-hydroxylating (protein)", "chain": "B1 chain with A75V, S79N, V82F, L182A, V185T"}, "B6": {"name": "III-B1: FL#62-derived P450 variant (SEQ ID NO. 12) (protein)", "chain": "B1 chain with S79F, V82F"}, "B7": {"name": "II-H10: FL#62-derived P450 variant (SEQ ID NO. 11), 7(R)-hydroxylating (protein)", "chain": "B1 chain with S79N, V82F, A83T, A88F, L182F, V185T"}, "B8": {"name": "X-F11: II-E2-derived P450 variant (SEQ ID NO. 15), 6a-hydroxylating (protein)", "chain": "B1 chain with A75T, S79N, V82F, T181A, V185S"}, "B9": {"name": "CYP102A1: naturally occurring wild-type cytochrome P450 CYP102A1 from Bacillus megaterium (SEQ ID NO.: 1) (protein, listed as Bacillus megaterium)", "chain": "MTIKEMPQPKTFGELKNLPLLNTDKPVQALMKIADELGEIFKFEAPGRVTRYLSSQRLIKEACDESRFDKNLSQALKFVRDFAGDGLFTSWTHEKNWKKAHNILLPSFSQQAMKGYHAMMVDIAVQLVQKWERLNADEHIEVPEDMTRLTLDTIGLCGFNYRFNSFYRDQPHPFITSMVRALDEAMNKLQRANPDDPAYDENKRQFQEDIKVMNDLVDKIIADRKASGEQSDDLLTHMLNGKDPETGEPLDDENIRYQIITFLIAGHETTSGLLSFALYFLVKNPHVLQKAAEEAARVLVDPVPSYKQVKQLKYVGMVLNEALRLWPTAPAFSLYAKEDTVLGGEYPLEKGDELMVLIPQLHRDKTIWGDDVEEFRPERFENPSAIPQHAFKPFGNGQRACIGQQFALHEATLVLGMMLKHFDFEDHTNYELDIKETLTLKPEGFVVKAKSKKIPLGGIPSPSTEQSAKKVRKKAENAHNTPLLVLYGSNMGTAEGTARDLADIAMSKGFAPQVATLDSHAGNLPREGAVLIVTASYNGHPPDNAKQFVDWLDQASADEVKGVRYSVFGCGDKNWATTYQKVPAFIDETLAAKGAENIADRGEADASDDFEGTYEEWREHMWSDVAAYFNLDIENSEDNKSTLSLQFVDSAADMPLAKMHGAFSTNVVASKELQQPGSARSTRHLEIELPKEASYQEGDHLGVIPRNYEGIVNRVTARFGLDASQQIRLEAEEEKLAHLPLAKTVSVEELLQYVELQDPVTRTQLRAMAAKTVCPPHKVELEALLEKQAYKEQVLAKRLTMLELLEKYPACEMKFSEFIALLPSIRPRYYSISSSPRVDEKQASITVSVVSGEAWSGYGEYKGIASNYLAELQEGDTITCFISTPQSEFTLPKDPETPLIMVGPGTGVAPFRGFVQARKQLKEQGQSLGEAHLYFGCRSPHEDYLYQEELENAQSEGIITLHTAFSRMPNQPKTYVQHVMEQDGKKLIELLDQGAHFYICGDGSQMAPAVEATLMKSYADVHQVSEADARLWLQQLEEKGRYAKDVWAG"}, "B10": {"name": "FL#41: CYP102A1-derived engineered P450 variant (SEQ ID NO. 4) (protein)", "chain": "B9 chain with F88A"}}, "note": "Residue numbers refer to the chain shown, from its start. Where “and” joins values, the source holds several entries; their conditions need not be identical. Equal entries are not always repeated.", "data": [{"assay": "not given", "assay_type": "biochemical", "conditions": "250 μM artemisinin, rates measured over initial 30 seconds", "experimental": "Measurement of Product Formation Rates and Coupling Efficiency.\nInitial product formation rates were measured from 1 mL-scale reactions containing 250 μM artemisinin, 0.1-0.5 μM purified P450, and 200 μM NADPH in potassium phosphate buffer (50 mM, pH 8.0) at room temperature. After 30 seconds, the samples were extracted with dichloromethane and subjected to benzoyl chloride derivatization followed by HPLC analysis as described above. Cofactor oxidation rate in the presence of artemisinin was measured by monitoring NADPH depletion at 340 nm (ε=6.22 mM^−1 cm^−1) using 0.1 μM purified P450, 250 μM artemisinin, and 200 μM NADPH. Coupling efficiency was calculated from the ratio between the initial product formation rate and the initial NADPH oxidation rate. Reported mean and standard deviation values were calculated from experiments performed at least in triplicate.", "values": [{"molecule": "B1", "Product formation rate": "100 ± 4 Mole product per mole P450 per minute"}, {"molecule": "B2", "Product formation rate": "316 ± 20 Mole product per mole P450 per minute"}, {"molecule": "B3", "Product formation rate": "148 ± 3 Mole product per mole P450 per minute"}, {"molecule": "B4", "Product formation rate": "41 ± 2 Mole product per mole P450 per minute"}, {"molecule": "B5", "Product formation rate": "72 ± 3 Mole product per mole P450 per minute"}, {"molecule": "B6", "Product formation rate": "72 ± 2 Mole product per mole P450 per minute"}, {"molecule": "B7", "Product formation rate": "32 ± 2 Mole product per mole P450 per minute"}, {"molecule": "B8", "Product formation rate": "56 ± 2 Mole product per mole P450 per minute"}]}, {"assay": "Total turnovers and regio-/stereoselectivity of P450 variants in artemisinin hydroxylation (analytical scale)", "assay_type": "biochemical", "conditions": "artemisinin as substrate", "experimental": "(§1) Determination of Total Turnovers and Regio- and Stereoselectivity of the P450 Variants.\n(§2) After 12 hours, 9-fluorenone was added to the mixtures as internal standard. The hydroxylation products were functionalized with benzoyl chloride followed by HPLC analysis. TTN values were calculated based on the total amount of hydroxylated products in the reactions as quantified based on the calibration curves generated using purified 2-4. The enzyme regio- and stereoselectivity was determined based on the area under the curve of the chromatographic peaks corresponding to the hydroxylation products 2, 3, and 4. Mean and standard deviation values reported for P450 variants in Table 1 were calculated from experiments performed at least in triplicate.", "units": {"(S)-stereoselectivity for C7 hydroxylation": "%", "regioselectivity for C7 hydroxylation": "%", "regioselectivity toward 6a-hydroxylation": "%"}, "values": [{"molecule": "B1", "(S)-stereoselectivity for C7 hydroxylation": "> 99.9", "regioselectivity for C7 hydroxylation": "> 99.9"}, {"molecule": "B2", "regioselectivity toward 6a-hydroxylation": 7}, {"molecule": "B3", "regioselectivity toward 6a-hydroxylation": 48}, {"molecule": "B5", "regioselectivity toward 6a-hydroxylation": 94}, {"molecule": "B8", "regioselectivity toward 6a-hydroxylation": 92}]}, {"assay": "Total turnovers and regio-/stereoselectivity of P450 variants in artemisinin hydroxylation (analytical scale)", "assay_type": "biochemical", "conditions": "share of 6a-hydroxy-ART (4); 0.5 mM artemisinin, 0.5-1 μM P450, 12 hours", "experimental": "as §1, §2", "units": {"Product distribution (%) 4": "%"}, "values": [{"molecule": "B1", "Product distribution (%) 4": 0}, {"molecule": "B2", "Product distribution (%) 4": 7}, {"molecule": "B3", "Product distribution (%) 4": 48}, {"molecule": "B4", "Product distribution (%) 4": 4}, {"molecule": "B5", "Product distribution (%) 4": 94}, {"molecule": "B6", "Product distribution (%) 4": 0}, {"molecule": "B7", "Product distribution (%) 4": 0}, {"molecule": "B8", "Product distribution (%) 4": 92}]}, {"assay": "Total turnovers and regio-/stereoselectivity of P450 variants in artemisinin hydroxylation (analytical scale)", "assay_type": "biochemical", "conditions": "share of 7(R)-hydroxy-ART (3); 0.5 mM artemisinin, 0.5-1 μM P450, 12 hours", "experimental": "as §1, §2", "units": {"Product distribution (%) 3": "%"}, "values": [{"molecule": "B1", "Product distribution (%) 3": 0}, {"molecule": "B2", "Product distribution (%) 3": 10}, {"molecule": "B3", "Product distribution (%) 3": 30}, {"molecule": "B4", "Product distribution (%) 3": 0}, {"molecule": "B5", "Product distribution (%) 3": 2}, {"molecule": "B6", "Product distribution (%) 3": 81}, {"molecule": "B7", "Product distribution (%) 3": 100}, {"molecule": "B8", "Product distribution (%) 3": 8}]}, {"assay": "Total turnovers and regio-/stereoselectivity of P450 variants in artemisinin hydroxylation (analytical scale)", "assay_type": "biochemical", "conditions": "share of 7(S)-hydroxy-ART (2); 0.5 mM artemisinin, 0.5-1 μM P450, 12 hours", "experimental": "as §1, §2", "units": {"Product distribution (%) 2": "%"}, "values": [{"molecule": "B1", "Product distribution (%) 2": 100}, {"molecule": "B2", "Product distribution (%) 2": 83}, {"molecule": "B3", "Product distribution (%) 2": 22}, {"molecule": "B4", "Product distribution (%) 2": 96}, {"molecule": "B5", "Product distribution (%) 2": 4}, {"molecule": "B6", "Product distribution (%) 2": 19}, {"molecule": "B7", "Product distribution (%) 2": 0}, {"molecule": "B8", "Product distribution (%) 2": 0}]}, {"assay": "Total turnovers and regio-/stereoselectivity of P450 variants in artemisinin hydroxylation (analytical scale)", "assay_type": "biochemical", "conditions": "total turnovers on artemisinin, NADPH cofactor regeneration system, analytical scale", "experimental": "as §1, §2", "values": [{"molecule": "B1", "TTN": "362 and 362 ± 15"}, {"molecule": "B3", "TTN": "393 and 393 ± 25"}, {"molecule": "B4", "TTN": "434 ± 21"}, {"molecule": "B5", "TTN": "113 and 113 ± 12"}, {"molecule": "B6", "TTN": "403 ± 17"}, {"molecule": "B7", "TTN": "270 ± 8"}, {"molecule": "B8", "TTN": "376 ± 19"}, {"molecule": "B9", "TTN": "< 1"}, {"molecule": "B10", "TTN": "about 50"}]}, {"assay": "KD for artemisinin binding to P450 variants (heme spin-shift titration)", "conditions": "binding of artemisinin to 3 μM purified P450, pH 8.0", "experimental": "Determination of KD Values for Artemisinin Binding.\nBinding experiments were performed using 3 μM purified P450 in potassium phosphate buffer (50 mM, pH 8.0) by titrating increasing amounts of artemisinin (5 μM to 1 mM) from an ethanol stock solution (50 mM). At each concentration, a difference spectrum from 350 to 500 nm was recorded and binding curves were generated by plotting the change in absorbance at 390 nm and 420 nm corresponding to the high-spin and low-spin state of the enzyme, respectively, against the artemisinin concentration. KD values were calculated using Sigma Plot via non-linear fitting of the experimental binding curves to an equation describing a standard 1:1 binding interaction. Reported mean and standard deviation values were calculated from experiments performed at least in triplicate.", "units": {"Kd": "µM"}, "values": [{"molecule": "B1", "Kd": "53 ± 11"}, {"molecule": "B2", "Kd": "29 ± 5"}, {"molecule": "B3", "Kd": "164 ± 18"}, {"molecule": "B4", "Kd": "45 ± 10"}, {"molecule": "B5", "Kd": "300 ± 24"}, {"molecule": "B6", "Kd": "38 ± 2"}, {"molecule": "B7", "Kd": "61 ± 2"}, {"molecule": "B8", "Kd": "234 ± 29"}]}]}
